# Results as given in the Immune Epitope Database (IEDB).
# Experiments:
# Assay in all cases: IEDB peptide-MHC binding, purified MHC/competitive/radioactivity; ≥ and ≤ were set here for values at or beyond the usual limits of such assays
# [1] = target: HLA-A*02:01
# [2] = target: HLA-A*02:03
# [3] = target: HLA-A*02:02
# [4] = target: HLA-A*68:02
# [5] = target: HLA-A*02:06
# [6] = source organism: Vaccinia virus WR
# [7] = source organism: Mammarenavirus guanaritoense
# [8] = source organism: Mammarenavirus juninense
# [9] = source organism: Mammarenavirus choriomeningitidis
# [10] = source organism: Influenza A virus
Sequence,"IC50 [1, 6] [µM]","IC50 [2, 6] [µM]","IC50 [3, 6] [µM]","IC50 [4, 6] [µM]","IC50 [5, 6] [µM]",further results
AAIDRQVSV,1.47,0.019,0.933,1.44,0.015,–
TSVDLNAPV,–,–,–,–,–,"IC50 [1, 7]: 0.464 µM; IC50 [2, 7]: 0.841 µM; IC50 [3, 7]: 0.065 µM; IC50 [4, 7]: 0.00026 µM; IC50 [5, 7]: 0.026 µM"
TLGVYDYLV,–,–,–,–,–,IC50 ([1]; source organism: SARS-CoV1): 0.0027 µM; IC50 ([2]; source organism: SARS-CoV1): 0.936 µM; IC50 ([3]; source organism: SARS-CoV1): 0.00025 µM; IC50 ([4]; source organism: SARS-CoV1): 0.157 µM; IC50 ([5]; source organism: SARS-CoV1): 0.075 µM
CTINVNSLA,1.04,1.61,1.04,0.013,0.248,–
LLALQQLEV,–,–,–,–,–,IC50 ([1]; source organism: SARS-CoV1): 0.001 µM; IC50 ([2]; source organism: SARS-CoV1): 0.00029 µM; IC50 ([3]; source organism: SARS-CoV1): 0.00014 µM; IC50 ([4]; source organism: SARS-CoV1): 0.083 µM; IC50 ([5]; source organism: SARS-CoV1): 0.042 µM
KASTISWMM,1.41,0.556,0.429,2.94,0.797,–
VLALYSPPL,0.00019,0.00041,0.00022,1.4,0.033,–
LAISAVYFKA,0.77,0.363,1.43,0.802,0.659,–
TLPELNLSL,0.062,0.023,0.135,0.309,0.802,–
YVILKDPRI,0.778,0.203,1.55,0.847,0.012,–
MMNERDVSV,0.0011,0.00027,0.00044,0.566,0.064,–
YLGPRVCWL,0.0022,0.0034,0.0009,0.514,0.023,–
FTLLFQLCT,–,–,–,–,–,IC50 ([1]; source organism: SARS-CoV1): 0.133 µM; IC50 ([2]; source organism: SARS-CoV1): 0.744 µM; IC50 ([3]; source organism: SARS-CoV1): 1.1 µM; IC50 ([4]; source organism: SARS-CoV1): 2.74 µM; IC50 ([5]; source organism: SARS-CoV1): 0.14 µM
ATFRDMLLNV,0.0083,0.0004,0.0071,0.511,0.003,–
VMYASALVLL,–,–,–,–,–,IC50 ([1]; source organism: SARS-CoV1): 0.0057 µM; IC50 ([2]; source organism: SARS-CoV1): 0.004 µM; IC50 ([3]; source organism: SARS-CoV1): 0.00025 µM; IC50 ([4]; source organism: SARS-CoV1): 0.756 µM; IC50 ([5]; source organism: SARS-CoV1): 0.041 µM
SIDHCSSFIV,0.023,0.772,0.172,0.732,0.03,–
FIASAPQQL,0.12,0.0044,0.002,0.035,0.089,–

Sequence,"IC50 [1, 6] [µM]","IC50 [2, 6] [µM]","IC50 [3, 6] [µM]","IC50 [4, 6] [µM]","IC50 [5, 6] [µM]",further results
TMADLVYAL,–,–,–,–,–,IC50 ([1]; source organism: SARS-CoV1): 0.0065 µM; IC50 ([2]; source organism: SARS-CoV1): 0.016 µM; IC50 ([3]; source organism: SARS-CoV1): 0.00018 µM; IC50 ([4]; source organism: SARS-CoV1): 0.02 µM; IC50 ([5]; source organism: SARS-CoV1): 0.047 µM
VTLFIDRGSI,1.5,2.25,3.83,0.014,3.01,–
KSGLFQFFV,–,–,–,–,–,"IC50 [1, 8]: 0.017 µM; IC50 [2, 8]: 1.56 µM; IC50 [3, 8]: 0.023 µM; IC50 [4, 8]: 0.201 µM; IC50 [5, 8]: 0.0081 µM"
RTNDLTALL,0.357,0.0072,0.0037,0.013,0.119,–
LLSAGIFGA,–,–,–,–,–,IC50 ([1]; source organism: SARS-CoV1): 0.0081 µM; IC50 ([2]; source organism: SARS-CoV1): 0.015 µM; IC50 ([3]; source organism: SARS-CoV1): 0.012 µM; IC50 ([4]; source organism: SARS-CoV1): 0.106 µM; IC50 ([5]; source organism: SARS-CoV1): 0.025 µM
FLTGTFVTA,0.015,0.00071,0.0047,0.896,0.0021,–
LVMDKNHAI,0.327,0.77,0.019,0.01,0.103,–
ALMDLLMFS,–,–,–,–,–,"IC50 [1, 9]: 0.0024 µM; IC50 [2, 9]: 0.104 µM; IC50 [3, 9]: 0.00094 µM; IC50 [4, 9]: 2.99 µM; IC50 [5, 9]: 0.014 µM"
KLLYAAEMV,0.048,0.054,0.058,2.81,0.018,–
SLVITYCLV,0.174,0.201,1.69,1.4,0.27,–
SLTTIGTIA,0.133,0.0037,0.001,0.323,0.489,–
KVLSIMAFIL,0.088,0.684,0.0023,2.97,0.019,–
SLVKPTVYV,–,–,–,–,–,IC50 ([1]; source organism: SARS-CoV1): 0.106 µM; IC50 ([2]; source organism: SARS-CoV1): 0.037 µM; IC50 ([3]; source organism: SARS-CoV1): 0.108 µM; IC50 ([4]; source organism: SARS-CoV1): 0.145 µM; IC50 ([5]; source organism: SARS-CoV1): 0.473 µM
CVMYASALV,–,–,–,–,–,IC50 ([1]; source organism: SARS-CoV1): 0.0093 µM; IC50 ([2]; source organism: SARS-CoV1): 0.0029 µM; IC50 ([3]; source organism: SARS-CoV1): 0.0045 µM; IC50 ([4]; source organism: SARS-CoV1): 0.00089 µM; IC50 ([5]; source organism: SARS-CoV1): 0.0074 µM
SISEINEWL,0.0019,0.0018,0.00013,0.0013,0.0063,–
MQIRGFVYFV,–,–,–,–,–,"IC50 [1, 10]: 0.015 µM; IC50 [2, 10]: 0.0036 µM; IC50 [3, 10]: 0.019 µM; IC50 [4, 10]: 0.025 µM; IC50 [5, 10]: 0.01 µM"
NTDHPLSINV,0.307,0.583,0.388,0.00067,0.0016,–
